“Also recorded” adds a separate entry of the source.

In the assay the target is T1, human complement 5a receptor (C5aR) (Homo sapiens, UniProt P21730).
T1 construct: 10x His (N); FLAG (N); StrepII (C); made in house; host or cells: Sf9 insect cells (recombinant baculovirus, pOET5 / flashBAC); membrane preparation
T1 sequence (P21730 1-350): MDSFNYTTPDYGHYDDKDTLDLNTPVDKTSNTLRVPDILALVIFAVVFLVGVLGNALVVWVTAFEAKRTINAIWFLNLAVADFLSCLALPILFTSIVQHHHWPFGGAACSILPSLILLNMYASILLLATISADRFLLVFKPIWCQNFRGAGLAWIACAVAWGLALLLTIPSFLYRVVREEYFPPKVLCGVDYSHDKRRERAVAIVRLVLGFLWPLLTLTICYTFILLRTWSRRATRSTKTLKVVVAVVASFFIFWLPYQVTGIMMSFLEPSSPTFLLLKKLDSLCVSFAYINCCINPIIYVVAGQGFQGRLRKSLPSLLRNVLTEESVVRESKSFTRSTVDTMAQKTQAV
As to the kind of experiment: Specific binding of [^3H]‐C5a^CF to C5aR (optimization of translation and assay conditions). How it is done: For the cell‐free synthesis of radioligands one amino acid was replaced with a tritiated variant depending on its abundance in the respective ligand. Complement 5a was produced in the presence of 1 μM (FM)/2.1 μM (RM) L‐[2,3‐^3H]‐proline (specific activity 55 Ci·mmol^−1, Perkin Elmer, Boston, USA). […] The cell‐free reaction was initiated omitting the labelled amino acid and incubated at 30 °C, 100 rpm for 3 h. The reaction mix was removed from the D‐tube™ dialyzer and incubated with 0.2 mL Ni‐NTA magnetic agarose beads suspension (Qiagen) per mL reaction mix for 10 min to remove undesired side products translated with endogenously present amino acids from the S30 extract. The reaction mix was removed from the magnetic beads, supplemented with 0.25 mM L‐histidine to account for potential losses in the IMAC (immobilized metal ion affinity chromatography) step and the tritium‐labelled amino acid. The feeding mix was discarded and replaced with a fresh mix containing the labelled amino acid. Reactions were incubated at 30 °C in a water bath under constant shaking overnight.
For purification of tritium‐labelled complement 5a ([^3H]‐C5a^CF), reaction and feeding mixes were pooled and applied to a 1 mL HisTrap FF column (GE Healthcare) equilibrated in buffer C^C5a using a peristaltic pump. The column was washed with 4 CV buffer C1^C5a, 4 CV buffer C2^C5a and eluted in 4 CV buffer D^C5a. […] Buffer exchange to buffers C^C5a or C^ET−1 was performed by repeated concentration and dilution in a 3 kDa MWCO concentrator (Amicon) and protein concentration was calculated using the specific activity of incorporated [^3H]‐Pro or [^3H]‐Phe residues.
The complement 5a receptor was coproduced with Gαi2 in Sf9 insect cells. The cDNA encoding the human complement 5a receptor flanked by an N‐terminal 10x His and FLAG tag and a C‐terminal StrepII tag was cloned into the pOET5 transfer vector (Oxford Expression Technologies, Oxford, UK). pOET5 contains two expression cassettes, the receptor is expressed under the control of a polyhedron promoter; Gαi2 expression is regulated by a p10 promoter. […]

B1: [^3H]‐C5a^CF: cell‐free‐synthesized tritium‐labelled complement 5a with N‐terminal hexa‐histidine tag; contains three proline residues (protein, UniProt P01031 678-751, looked up)
C5a anaphylatoxin: TLQKKIEEIAAKYKHSVVKKCCYDGACVNNDETCEQRAARISLGPRCIKAFTECCVVASQLRANISHKDMQLGR
modifications: C5a anaphylatoxin tritium label
For B1, the “Specific binding to the C5aR” value (first translation trials, produced with DsbA and IMAC purified, no pretranslation step) is “only low and nonsignificant binding to the C5aR; also recorded: specific binding is low and nonsignificant”; the “Specific binding to the C5aR” value (pretranslation step plus NaCl in assay and wash buffer) was “further increases the detected specific binding”; the “Specific binding to the C5aR” value (with pretranslation step to remove endogenous proline) is “binding specifically to the C5aR and displaying low nonspecific background; also recorded: strongly increased (dark grey bar) and statistically significant”.

(Values after paper PMC4794788, “Cell‐free synthesis of isotopically labelled peptide ligands for the functional characterization of G protein‐coupled receptors” (FEBS Open Bio, 2015).)
